Test results: patent US20110256153A1 (IMMUNOGEN, published 2011)

Assays:
human CD37 [1] = target: T1, human CD37 (human, UniProt P11049 1-278); assay: flow cytometry titration on Ramos cells; apparent Kd
T1 construct: Tetraspanin antigen; Expressed on 300-19 cells transfected with pSRa-CD37 (entire CDS) or endogenous on WSU-DLCL-2, BJAB and Ramos lymphoma cells; also called CD37 antigen; human CD37 wildtype
T1 sequence: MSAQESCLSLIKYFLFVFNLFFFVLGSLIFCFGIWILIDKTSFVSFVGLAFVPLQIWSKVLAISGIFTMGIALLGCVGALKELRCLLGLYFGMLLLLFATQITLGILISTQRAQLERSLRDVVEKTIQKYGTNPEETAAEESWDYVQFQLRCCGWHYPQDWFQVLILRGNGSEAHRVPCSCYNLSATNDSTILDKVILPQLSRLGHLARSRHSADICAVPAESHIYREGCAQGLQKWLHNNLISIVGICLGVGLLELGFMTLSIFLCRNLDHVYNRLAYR
Method: (§1) Binding specificity was tested by flow cytometry using purified antibodies. […] All murine antibodies were incubated for 3 h with either CD37-expressing 300-19 cells or the non-transfected 300-19 cells (1×10⁵ cells per sample) in 100 μL FACS buffer (RPMI-1640 medium supplemented with 2% normal goat serum). Then, the cells were pelleted, washed, and incubated for 1 h with 100 μL of FITC-conjugated goat anti-mouse IgG-antibody (Jackson Laboratory, 6 μg/mL in FACS buffer). The cells were pelleted again, washed with FACS buffer and resuspended in 200 μL of PBS containing 1% formaldehyde. Samples were acquired using a FACSCalibur flow cytometer with the HTS multiwell sampler or a FACS array flow cytometer and analyzed using CellQuest Pro (all from BD Biosciences, San Diego, US).
The chimeric antibodies chCD37-3 and chCD37-12 were assayed for their binding affinity to Ramos cells in comparison to their murine counterparts. Flow cytometry binding assays using Ramos cells and muCD37-3, chCD37-3, muCD37-12 and chCD37-12 antibodies were carried out and analyzed as described in Example 2 using secondary FITC-conjugated goat-anti-murine and -anti-human antibodies. FIG. 9A depicts the dose-response curves generated by non-linear regression for each antibody. The value for the apparent dissociation constant (Kd) of each antibody was calculated using GraphPad Prism v4 (GraphPad software, San Diego, Calif.).

human CD37 [2] = target: T1, human CD37; assay: competition flow cytometry on BJAB cells; competitor PE-labeled muCD37-3 (1 nM)
Method: Flow cytometry binding assays using BJAB cells and a competitive binding format were used to evaluate binding affinity of chimeric and humanized versions of CD37-3. BJAB cells were incubated with a 1 nM concentration of PE-labeled muCD37-3 antibody and competition was measured by adding varying amounts of muCD37-3, chCD37-3, huCD37-3v1.0 or huCD37-3v1.01. The samples were incubated for 3 hrs at 4° C. Then, the cells were pelleted, washed with FACS buffer and resuspended in 200 μL of PBS containing 1% formaldehyde. Samples were acquired using a FACSCalibur flow cytometer with the HTS multiwell sampler and analyzed using CellQuest Pro (all from BD Biosciences, San Diego, US). The resulting mean PE fluorescence was plotted against the amount of competing antibody used in a semi-log plot. FIG. 9B depicts the dose-response curves generated by non-linear regression for each antibody. The value for the apparent dissociation constant (Kd) of each antibody was calculated using GraphPad Prism v4 (GraphPad software, San Diego, Calif.).

human CD37 [3] = target: T1, human CD37; assay: flow cytometry titration; apparent Kd; cells not named
human CD37 [4] = target: T1, human CD37; assay: flow cytometry titration on BJAB cells (FIG. 20A); apparent Kd
human CD37 [5] = target: T1, human CD37; assay: flow cytometry titration on BJAB cells; apparent Kd
Method: as §1
The humanized antibodies huCD37-38, huCD37-50, huCD37-51, huCD37-56 and chCD37-57 were assayed for their binding affinity to BJAB cells in comparison to their murine counterparts. Flow cytometry binding assays were carried out using secondary FITC-conjugated goat-anti-murine and -anti-human antibodies, analyzed as described in Example 2 and dose-response curves were generated by non-linear regression for each antibody. The value for the apparent dissociation constant (Kd) of each antibody was calculated using GraphPad Prism v4 (GraphPad software, San Diego, Calif.).

macaque CD37 [6] = target: T2, macaque CD37 (macaque, UniProt P11049 1-277 (human entry)); assay: flow cytometry, 300-19/CD37mac cells
T2 construct: Expressed on 300-19 cells transfected with pSRa-CD37mac (300-19/CD37mac cells); also called macaca CD37; macaque derived CD37 antigen
T2 chain: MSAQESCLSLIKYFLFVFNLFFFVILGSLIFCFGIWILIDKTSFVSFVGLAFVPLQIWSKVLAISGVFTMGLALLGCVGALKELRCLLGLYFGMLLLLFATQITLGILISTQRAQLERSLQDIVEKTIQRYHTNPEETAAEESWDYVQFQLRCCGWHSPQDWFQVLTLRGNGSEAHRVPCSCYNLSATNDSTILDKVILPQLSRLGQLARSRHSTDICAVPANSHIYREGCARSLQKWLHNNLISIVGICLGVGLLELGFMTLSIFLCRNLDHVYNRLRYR
Method: as §1
The murine antibodies muCD37-3, muCD37-12, muCD37-38, […], muCD37-51, muCD37-56 and muCD37-57 were assayed for their ability to bind to 300-19/CD37mac cells expressing macaque CD37. Flow cytometry binding assays were carried out using secondary FITC-conjugated goat-anti-murine or goat-anti-human antibodies, analyzed as described in Example 2. Binding was compared to the previously described anti-CD37 antibody WR17 and the anti-CD37 SMIP TRU-016. […] In contrast, muCD37-3, muCD37-12, the previously described anti-CD37 antibody WR17 and the anti-CD37 SMIP TRU-016 are unable to bind the macaque derived CD37 antigen.

human CD37 [7] = target: T1, human CD37; assay: flow cytometry titration on BJAB cells (FIG. 20B); apparent Kd
human CD37 [8] = target: T1, human CD37; assay: cell-based or functional assay
macaque CD37 [9] = target: T2, macaque CD37; assay: flow cytometry titration on 300-19/CD37mac cells; apparent Kd
Method: as §1
Flow cytometry binding assays were carried out using secondary FITC-conjugated goat-anti-human antibodies, analyzed as described in Example 2 and dose-response curves were generated by non-linear regression for each antibody. The value for the apparent dissociation constant (Kd) of each antibody was calculated using GraphPad Prism v4 (GraphPad software, San Diego, Calif.).

B1: chCD37-3 (antibody, human IgG1, kappa)
heavy: not shown
light: DIQMTQSPASLSVSVGETVTITCRASENIRSNLAWYQQKQGKSPQLLVNVATNLADGVPSRFSGSGSGTQYSLKINSLQSEDFGTYYCQHYWGTTWTFGGGTKLEIKRTVAAPSVFIFPPSDEQLKSGTASVVCLLNNFYPREAKVQWKVDNALQSGNSQESVTEQDSKDSTYSLSSTLTLSKADYEKHKVYACEVTHQGLSSPVTKSFNRGEC
notes: Chimeric antibody, murine variable regions with human constant regions
B1 was tested, and the Kd (human CD37 [1]) was 800 pM and the EC50 (human CD37 [2]) was 700 pM.

B2: huCD37-3 (antibody, human IgG1, kappa, V domains shown)
VH: QVQVQESGPGLVAPSQTLSITCTVSGFSLTTSGVSWVRQPPGKGLEWLGVIWGDGSTNYHPSLKSRLSIKKDHSKSQVFLKLNSLTAADTATYYCAKGGYSLAHWGQGTLVTVSS
VL: DIQMTQSPSSLSVSVGERVTITCRASENIRSNLAWYQQKPGKSPKLLVNVATNLADGVPSRFSGSGSGTDYSLKINSLQPEDFGTYYCQHYWGTTWTFGQGTKLEIKR
notes: also called huCD37-3 Ab; huCD37-3 antibody
With B2 the Kd (human CD37 [3]) was 280 pM, the Kd (human CD37 [4]) was 260 pM and the Kd (human CD37 [5]) was 200 pM. B2: no binding (macaque CD37 [6]).

B3: huCD37-38-SMCC-DM1 (antibody, human IgG1, kappa, V domains shown)
VH: QVQLQESGPGLVKPSQSLSLTCTVSGYSITSGFGWHWIRQFPGKGLEWMAYILYSGGTDYNPSLKSRISITRDTSKNQFFLRLSSVTAADTATYYCARGYYGYGAWFVYWGQGTLVTVSS
VL: DIVLTQSPASMSASPGERVTMTCSASSSVTYMHWYQQKPGTSPKRWIYDTSKLASGVPARFSGSGSGTSYSLTISSMEAEDAATYYCQQWISNPPTFGGGTKLEIKR
modifications: DM1 attached through SMCC linker; attachment residues and load not stated
notes: SMCC-DM1 conjugate of huCD37-38
In the case of B3, the Kd (human CD37 [7]) is reported as 1200 pM, the “EC50 of in vitro cytotoxicity, WST-8 assay, Daudi cells” value (human CD37 [8]) is reported as 98 pM and the “EC50 of in vitro cytotoxicity, WST-8 assay, Granta-519 cells” value (human CD37 [8]) is reported as 74 pM.

B4: huCD37-38 (antibody, human IgG1, kappa, V domains shown)
VH: B3 VH
VL: B3 VL
notes: Humanized antibody
Binder B4 has a Kd (human CD37 [5]) of 300 pM, a Kd (macaque CD37 [9]) of 1100 pM and a Kd (human CD37 [7]) of 1040 pM.
